Patent US20200317768A1 (published 2020)
Changes are numbered by the printed parent chain.

T1: cynomolgus monkey FcγRIIa1 extracellular domain, His-tagged (cynomolgus monkey)
T1 construct: also called cyno FcγRIIa1; cynoFcgRIIa1
T1 chain: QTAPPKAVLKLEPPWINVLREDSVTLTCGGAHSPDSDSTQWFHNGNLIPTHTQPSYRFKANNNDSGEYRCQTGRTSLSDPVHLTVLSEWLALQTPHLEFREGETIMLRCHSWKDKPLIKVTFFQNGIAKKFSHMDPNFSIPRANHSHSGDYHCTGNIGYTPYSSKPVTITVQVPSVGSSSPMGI

T2: cynomolgus monkey FcγRIIa2 extracellular domain, His-tagged (cynomolgus monkey)
T2 construct: also called cyno FcγRIIa2; cynoFcgRIIa2
T2 chain: T1 chain with P95T, T121A, I127K, A128S, K130N, D135N, R142Q

T3: cynomolgus monkey FcγRIIa3 extracellular domain, His-tagged (cynomolgus monkey)
T3 construct: also called cyno FcγRIIa3; cynoFcgRIIa3
T3 chain: T1 chain with P95T, T121A, A128S, H133P, D135N

T4: cynomolgus monkey FcγRIIb extracellular domain, His-tagged (cynomolgus monkey)
T4 construct: also called cyno FcγRIIb; cynoFcγRIIb
T4 chain: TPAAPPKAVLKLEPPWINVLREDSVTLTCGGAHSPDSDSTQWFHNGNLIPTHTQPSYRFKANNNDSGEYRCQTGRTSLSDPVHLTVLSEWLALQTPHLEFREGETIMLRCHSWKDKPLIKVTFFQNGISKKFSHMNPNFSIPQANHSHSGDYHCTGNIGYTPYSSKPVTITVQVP

T5: cynomolgus monkey FcγRIIIaS extracellular domain, His-tagged (cynomolgus monkey, UniProt Q8SPW2 21-206 at identity 1.00))
T5 construct: also called cyno FcγRIIIaS; cynoFcγRIIIaS
T5 chain: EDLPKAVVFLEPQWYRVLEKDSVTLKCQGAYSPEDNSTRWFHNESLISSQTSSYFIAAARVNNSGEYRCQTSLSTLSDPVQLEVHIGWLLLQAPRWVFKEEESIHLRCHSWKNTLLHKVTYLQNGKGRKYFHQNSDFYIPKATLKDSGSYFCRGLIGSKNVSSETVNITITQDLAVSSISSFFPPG

T6: human FcγRIIaH extracellular domain, His-tagged (human, UniProt P12318 34-217)
T6 construct: also called human FcγRIIa (type H); FcgRIIaH
T6 sequence: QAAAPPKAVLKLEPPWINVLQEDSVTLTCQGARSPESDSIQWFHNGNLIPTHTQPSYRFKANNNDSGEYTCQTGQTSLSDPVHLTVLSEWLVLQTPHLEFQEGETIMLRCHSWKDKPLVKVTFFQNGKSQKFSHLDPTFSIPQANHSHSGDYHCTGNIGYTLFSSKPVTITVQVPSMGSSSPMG

T7: human FcγRIIb extracellular domain, His-tagged (human, UniProt P31994 43-217)
T7 construct: also called FcgRIIb (human)
T7 sequence: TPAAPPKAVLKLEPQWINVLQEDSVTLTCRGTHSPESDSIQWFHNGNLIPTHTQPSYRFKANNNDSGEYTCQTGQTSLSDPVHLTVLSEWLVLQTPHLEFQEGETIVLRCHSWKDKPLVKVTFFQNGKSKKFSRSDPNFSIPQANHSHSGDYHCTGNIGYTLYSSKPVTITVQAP

T8: human FcγRIIaR extracellular domain, His-tagged (human, UniProt P12318 34-217)
T8 construct: also called human FcγRIIa (type R); FcgRIIaR
T8 chain: T6 sequence with H134R

B1: M103205H795-MY012/M103202L889-SK1 (antibody, human IgG1, kappa)
heavy: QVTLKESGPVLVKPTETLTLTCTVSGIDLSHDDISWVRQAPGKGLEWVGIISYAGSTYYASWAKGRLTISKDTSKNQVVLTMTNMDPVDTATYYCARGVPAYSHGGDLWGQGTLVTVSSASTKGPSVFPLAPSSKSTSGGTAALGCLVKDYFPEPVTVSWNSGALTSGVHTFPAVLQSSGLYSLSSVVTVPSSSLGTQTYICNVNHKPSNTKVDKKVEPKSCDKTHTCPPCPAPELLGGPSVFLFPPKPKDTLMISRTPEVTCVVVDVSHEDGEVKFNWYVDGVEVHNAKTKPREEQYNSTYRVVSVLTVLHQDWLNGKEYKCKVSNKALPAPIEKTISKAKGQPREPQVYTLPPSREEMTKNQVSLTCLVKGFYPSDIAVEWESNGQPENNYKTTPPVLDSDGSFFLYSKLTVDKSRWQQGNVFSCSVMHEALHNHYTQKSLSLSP
light: DIVMTQSPATLSLSPGERATLSCTSSQSVYHANWLSWFQQKPGQPPKLLIYWASTLAYGVPSRFSGSGSGTDFTLTISSLQPEDAATYYCAGGYGGGRYAFGQGTKVEIKRTVAAPSVFIFPPSDEQLKSGTASVVCLLNNFYPREAKVQWKVDNALQSGNSQESVTEQDSKDSTYSLSSTLTLSKADYEKHKVYACEVTHQGLSSPVTKSFNRGEC
notes: Put into M103205H795-SG1
B2: M103205H795-MY061/M103202L889-SK1 (antibody, human IgG1, kappa)
heavy: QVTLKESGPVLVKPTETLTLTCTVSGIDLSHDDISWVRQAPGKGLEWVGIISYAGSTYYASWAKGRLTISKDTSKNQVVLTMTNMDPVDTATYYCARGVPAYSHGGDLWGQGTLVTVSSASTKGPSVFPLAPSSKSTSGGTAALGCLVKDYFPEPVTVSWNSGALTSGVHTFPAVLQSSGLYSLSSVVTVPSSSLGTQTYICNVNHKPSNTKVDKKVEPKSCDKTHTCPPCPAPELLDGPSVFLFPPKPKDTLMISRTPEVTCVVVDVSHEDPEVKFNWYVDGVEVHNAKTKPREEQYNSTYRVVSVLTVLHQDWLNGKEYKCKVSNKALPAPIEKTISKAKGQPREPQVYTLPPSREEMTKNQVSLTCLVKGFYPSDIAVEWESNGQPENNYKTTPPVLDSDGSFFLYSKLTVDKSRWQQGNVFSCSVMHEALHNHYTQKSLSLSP
light: B1 light
notes: Substitution put into M103205H795-SG1
B3: M103205H795-MY017/M103202L889-SK1 (antibody, human IgG1, kappa)
heavy: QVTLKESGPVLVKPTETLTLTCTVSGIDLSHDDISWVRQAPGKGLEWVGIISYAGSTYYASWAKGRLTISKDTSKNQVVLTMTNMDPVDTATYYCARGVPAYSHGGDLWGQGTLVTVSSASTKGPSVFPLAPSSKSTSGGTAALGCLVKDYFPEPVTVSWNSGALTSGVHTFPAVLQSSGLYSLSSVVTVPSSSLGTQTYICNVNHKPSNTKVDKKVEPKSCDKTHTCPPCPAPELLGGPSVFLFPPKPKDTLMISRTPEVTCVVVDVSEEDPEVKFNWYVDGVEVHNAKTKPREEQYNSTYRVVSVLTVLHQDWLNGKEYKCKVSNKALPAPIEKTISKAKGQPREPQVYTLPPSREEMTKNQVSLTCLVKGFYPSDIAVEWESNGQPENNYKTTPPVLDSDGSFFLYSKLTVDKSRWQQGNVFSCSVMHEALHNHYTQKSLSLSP
light: B1 light
notes: as for B2
B4: M103205H795-MY015/M103202L889-SK1 (antibody, human IgG1, kappa)
heavy: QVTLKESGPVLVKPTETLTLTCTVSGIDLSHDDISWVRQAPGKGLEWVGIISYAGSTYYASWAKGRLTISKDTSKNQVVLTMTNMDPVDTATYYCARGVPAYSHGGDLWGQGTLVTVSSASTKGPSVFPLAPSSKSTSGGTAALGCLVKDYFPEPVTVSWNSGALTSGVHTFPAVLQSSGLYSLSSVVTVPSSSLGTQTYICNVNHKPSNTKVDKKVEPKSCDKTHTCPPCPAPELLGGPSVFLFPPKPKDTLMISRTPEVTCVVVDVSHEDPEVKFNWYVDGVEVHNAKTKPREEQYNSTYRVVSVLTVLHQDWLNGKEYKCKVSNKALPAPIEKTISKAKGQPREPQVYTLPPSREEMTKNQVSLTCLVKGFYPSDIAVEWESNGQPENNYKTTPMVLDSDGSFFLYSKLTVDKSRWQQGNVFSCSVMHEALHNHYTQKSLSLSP
light: B1 light
notes: as for B2
B5: M103205H795-MY067/M103202L889-SK1 (antibody, human IgG1, kappa)
heavy: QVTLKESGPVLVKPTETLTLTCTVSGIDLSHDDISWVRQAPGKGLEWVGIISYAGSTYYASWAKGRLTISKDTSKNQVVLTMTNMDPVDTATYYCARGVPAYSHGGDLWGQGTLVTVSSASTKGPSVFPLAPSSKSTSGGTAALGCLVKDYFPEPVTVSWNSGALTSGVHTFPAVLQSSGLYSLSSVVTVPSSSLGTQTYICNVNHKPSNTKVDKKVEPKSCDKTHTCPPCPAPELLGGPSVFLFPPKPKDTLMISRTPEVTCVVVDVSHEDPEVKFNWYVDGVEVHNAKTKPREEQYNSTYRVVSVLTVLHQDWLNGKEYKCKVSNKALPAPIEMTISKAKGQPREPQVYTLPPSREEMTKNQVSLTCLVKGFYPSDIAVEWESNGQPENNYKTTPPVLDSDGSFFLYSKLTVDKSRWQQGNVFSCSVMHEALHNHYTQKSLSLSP
light: B1 light
notes: as for B2
B6: M103205H795-MY066/M103202L889-SK1 (antibody, human IgG1, kappa)
heavy: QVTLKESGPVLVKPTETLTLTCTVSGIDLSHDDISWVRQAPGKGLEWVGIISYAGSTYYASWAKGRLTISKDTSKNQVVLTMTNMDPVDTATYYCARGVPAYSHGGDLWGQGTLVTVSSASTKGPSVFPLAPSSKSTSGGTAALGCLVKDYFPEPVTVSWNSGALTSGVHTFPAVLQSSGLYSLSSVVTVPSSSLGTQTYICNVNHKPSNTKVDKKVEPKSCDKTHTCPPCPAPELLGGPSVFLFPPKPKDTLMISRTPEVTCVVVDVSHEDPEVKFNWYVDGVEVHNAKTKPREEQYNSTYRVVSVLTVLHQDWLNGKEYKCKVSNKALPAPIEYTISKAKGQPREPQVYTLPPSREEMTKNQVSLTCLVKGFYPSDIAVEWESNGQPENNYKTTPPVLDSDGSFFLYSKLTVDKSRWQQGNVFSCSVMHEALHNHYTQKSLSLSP
light: B1 light
notes: as for B2

Molecular target: T1, cynomolgus monkey FcγRIIa1 …
Assay: SPR; KD of SG1 / KD of variant;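 also: relative to parent M103205H795-SG1 carrying the SG1 human heavy chain constant region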

| KD fold (SG1 = 1) [fold] | Binder |
| --- | --- |
| 1.5 | B1 |
| 0.5 | B2 |
| 1.2 | B3 |

Molecular target: T2, cynomolgus monkey FcγRIIa2 …
Assay: SPR; KD of SG1 / KD of variant;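 also: relative to parent M103205H795-SG1 carrying the SG1 human heavy chain constant region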

| KD fold (SG1 = 1) [fold] | Binder |
| --- | --- |
| 2.2 | B1 |
| 0.8 | B2 |
| 1.8 | B3 |

Molecular target: T3, cynomolgus monkey FcγRIIa3 …
Assay: SPR; KD of SG1 / KD of variant;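 also: relative to parent M103205H795-SG1 carrying the SG1 human heavy chain constant region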

| KD fold (SG1 = 1) [fold] | Binder |
| --- | --- |
| 2.2 | B1 |
| 0.5 | B2 |
| 3.2 | B3 |

Molecular target: T4, cynomolgus monkey FcγRIIb extracellular …
Assay: SPR; KD of SG1 / KD of variant;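 also: relative to parent M103205H795-SG1 carrying the SG1 human heavy chain constant region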

| KD fold (SG1 = 1) [fold] | Binder |
| --- | --- |
| 1.6 | B1 |
| 0.6 | B2 |
| 2.6 | B3 |

Molecular target: T5, cynomolgus monkey FcγRIIIaS …
Assay: SPR; KD of SG1 / KD of variant

| KD fold (SG1 = 1) [fold] | Binder |
| --- | --- |
| 1.8 | B1 |
| 0.11 | B2 |
| 3.67 | B3 |

molecular target: T6, human FcγRIIaH extracellular domain, …; assay: SPR; KD of SG1 / KD of variant

| KD fold (SG1 = 1) [fold] | Binder |
| --- | --- |
| 1.6 | B1 |
| 0.5 | B2 |
| 1.5 | B3 |

molecular target: T7, human FcγRIIb extracellular domain, …; assay: SPR; KD of SG1 / KD of variant

| KD fold (SG1 = 1) [fold] | Binder |
| --- | --- |
| 5.3 | B1 |
| 1.8 | B2 |
| 4.9 | B3 |

molecular target: T9, human FcγRIIIaV extracellular domain, His-tagged (human, UniProt P08637 17-208); assay: SPR; KD of SG1 / KD of variant
T9 construct: also called FcgRIIIaV
T9 sequence (P08637 17-208 F176V): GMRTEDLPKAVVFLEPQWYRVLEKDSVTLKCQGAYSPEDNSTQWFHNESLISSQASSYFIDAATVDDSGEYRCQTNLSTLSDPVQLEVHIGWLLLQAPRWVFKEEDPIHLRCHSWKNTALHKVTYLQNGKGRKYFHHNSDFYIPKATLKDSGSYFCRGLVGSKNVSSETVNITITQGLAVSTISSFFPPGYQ

| KD fold (SG1 = 1) [fold] | Binder |
| --- | --- |
| 1.69 | B1 |
| 0.27 | B2 |
| 5.79 | B3 |

Molecular target: T1, cynomolgus monkey FcγRIIa1 …
Assay: SPR, antibody captured, FcgR analyte
Procedure: (§1) The kinetic analysis of interactions between these antibodies and FcγR was carried out using BIACORE® T200 or BIACORE® 4000 (GE Healthcare). HBS-EP+ (GE Healthcare) was used as the running buffer, and the measurement temperature was set to 25° C. A chip produced by immobilizing Protein A. Protein A/G or mouse anti-human IgG kappa light chain (BD Biosciences) onto a Series S Sensor Chip CM4 or CM5 (GE Healthcare) by the amine-coupling method was used. […] After the measurement, the antibody captured on the chip was washed off by allowing reaction with 10 mM glycine-HCl, pH1.5 and 25 mM NaOH so that the chip was regenerated and used repeatedly. The sensorgrams obtained as measurement results were analyzed by the 1:1 Langmuir binding model using the BIACORE® Evaluation Software to calculate the binding rate constant ka (L/mol/s) and dissociation rate constant kd (l/s), and the dissociation constant KD (mol/L) was calculated from these values. […] Regarding such interactions, KD values were calculated using the following 1:1 binding model described in BIACORE® T100 Software Handbook BR1006-48 Edition AE.
(§2) The behavior of interacting molecules according to the 1:1 binding model on BIACORE® can be described by Equation 1: Req=C·R max/(KD+C)+RI, wherein, Req is a plot of steady-state binding levels to analyte concentration. C is concentration, RI is bulk refractive index contribution in the sample, and Rmax is analyte binding capacity of the surface. When this equation is rearranged, KD can be expressed as Equation 2: KD=C·Rmax/(Req−RI)−C. KD can be calculated by substituting the values of Rmax, RI, and C into Equation 1 or Equation 2. From the current measurement conditions, RI=0, C=2 μmol/L can be used.

| Kd [µM] | Binder |
| --- | --- |
| 2.1 | B1 |
| 6.5 | B2 |
| 1.3 | B4 |
| 2.1 | B5 |
| 2.1 | B6 |
| 2.7 | B3 |

Molecular target: T2, cynomolgus monkey FcγRIIa2 …
Assay: SPR, antibody captured, FcgR analyte
Procedure: as §1, §2

| Kd [µM] | Binder |
| --- | --- |
| 2.3 | B1 |
| 1.5 | B4 |
| 2.3 | B5 |
| 2.8 | B6 |
| 2.9 | B3 |

Molecular target: T3, cynomolgus monkey FcγRIIa3 …
Assay: SPR, antibody captured, FcgR analyte
Procedure: as §1, §2

| Kd [µM] | Binder |
| --- | --- |
| 7.9 | B1 |
| 18 | B2 |
| 4.7 | B4 |
| 6.7 | B5 |
| 5.7 | B6 |
| 5.5 | B3 |

Molecular target: T4, cynomolgus monkey FcγRIIb extracellular …
Assay: SPR, antibody captured, FcgR analyte
Procedure: as §1, §2

| Kd [µM] | Binder |
| --- | --- |
| 1.1 | B1 |
| 4.2 | B2 |
| 1.1 | B5 |
| 1.4 | B6 |
| 0.58 | B3 |

Molecular target: T5, cynomolgus monkey FcγRIIIaS …
Assay: SPR, antibody captured, FcgR analyte
Procedure: as §1, §2

| Kd [µM] | Binder |
| --- | --- |
| 0.2 | B1 |
| 3.4 | B2 |
| 0.1 | B4 |
| 0.1 | B5 |
| 0.16 | B6 |
| 0.098 | B3 |

molecular target: T6, human FcγRIIaH extracellular domain, …; assay: SPR, antibody captured, FcgR analyte
Procedure: as §1, §2

| Kd [µM] | Binder |
| --- | --- |
| 0.44 | B1 |
| 1.4 | B2 |
| 0.33 | B4 |
| 0.53 | B5 |
| 0.64 | B6 |
| 0.45 | B3 |

Molecular target: T8, human FcγRIIaR extracellular domain, …
Assay: SPR, antibody captured, FcgR analyte
Procedure: as §1, §2

| Kd [µM] | Binder |
| --- | --- |
| 0.23 | B1 |
| 1.3 | B2 |
| 0.32 | B4 |
| 0.76 | B5 |
| 0.97 | B6 |
| 0.28 | B3 |

molecular target: T7, human FcγRIIb extracellular domain, …; assay: SPR, antibody captured, FcgR analyte
Procedure: as §1, §2

| Kd [µM] | Binder |
| --- | --- |
| 0.9 | B1 |
| 2.5 | B2 |
| 1.6 | B4 |
| 2.8 | B5 |
| 2.8 | B6 |
| 0.94 | B3 |

molecular target: T9, human FcγRIIIaV extracellular domain, …; assay: SPR, antibody captured, FcgR analyte
Procedure: as §1, §2

| Kd [µM] | Binder |
| --- | --- |
| 0.48 | B1 |
| 3 | B2 |
| 0.24 | B4 |
| 0.2 | B5 |
| 0.29 | B6 |
| 0.14 | B3 |
